How the values were obtained:
[1] = molecular target: Munia bornavirus 1 (MuBV-1) phosphoprotein oligomerisation domain (POD), residues 65 to 172 (munia bornavirus 1 (MuBV-1)); test: SEC-SAXS
[2] = molecular target: Munia bornavirus 1 (MuBV-1) phosphoprotein oligomerisation domain (POD), residues 65 to 172 (munia bornavirus 1 (MuBV-1)); test: crystal structure
[3] = molecular target: Gaboon viper virus 1 (GaVV-1) phosphoprotein oligomerisation domain (POD), residues 67 to 178 (Gaboon viper virus 1 (GaVV-1)); test: SEC-SAXS
[4] = molecular target: Gaboon viper virus 1 (GaVV-1) phosphoprotein oligomerisation domain (POD), residues 67 to 178 (Gaboon viper virus 1 (GaVV-1)); test: crystal structure

| Substance | stoichiometry N [1] | stoichiometry N [2] | stoichiometry N [3] | stoichiometry N [4] |
| --- | --- | --- | --- | --- |
| Munia bornavirus 1 (MuBV-1) phosphoprotein oligomerisation domain (POD), residues 65 to 172 (domain or fragment) | 4 | 4 |  |  |
| Gaboon viper virus 1 (GaVV-1) phosphoprotein oligomerisation domain (POD), residues 67 to 178 (domain or fragment) |  |  | 4 | 4 |
